Data from US20240132577A1.

Target: SARS-CoV-2 RBD (reagent of the GenScript sVNT kit L00847) (SARS-CoV-2), P0DTC2
Settings: remark: other sources report otherwise

B1: Nb21 (VHH)
chain: QVQLVESGGGLVQAGGSLRLSCAVSGLGAHRVGWFRRAPGKEREFVAAIGANGGNTNYLDSVKGRFTISRDNAKNTIYLQMNSLKPQDTAVYYCAARDIETAEYTYWGQGTQVTVSS
Inhibition Rate (%): 14%
